Here are results for three substances from paper PMC9044958.

This assay has as its target recombinant Fc-tagged VEGFR2 extracellular domain (VEGFR2-ECD) (UniProt P35968). Kind of assay: SPR; Biacore 8K, single-cycle mode, 25°C, HBS-P+ buffer; Fc-tagged VEGFR2-ECD (180 nM) captured on a protein A sensor chip at about 1,400 to 1,700 RU; analytes at 1.25, 2.5, 5, 10 and 20 nM, 30 uL/min; KD from the first on and off rates of the bivalent model.
Chain of UniProt P35968 (P35968 20-764): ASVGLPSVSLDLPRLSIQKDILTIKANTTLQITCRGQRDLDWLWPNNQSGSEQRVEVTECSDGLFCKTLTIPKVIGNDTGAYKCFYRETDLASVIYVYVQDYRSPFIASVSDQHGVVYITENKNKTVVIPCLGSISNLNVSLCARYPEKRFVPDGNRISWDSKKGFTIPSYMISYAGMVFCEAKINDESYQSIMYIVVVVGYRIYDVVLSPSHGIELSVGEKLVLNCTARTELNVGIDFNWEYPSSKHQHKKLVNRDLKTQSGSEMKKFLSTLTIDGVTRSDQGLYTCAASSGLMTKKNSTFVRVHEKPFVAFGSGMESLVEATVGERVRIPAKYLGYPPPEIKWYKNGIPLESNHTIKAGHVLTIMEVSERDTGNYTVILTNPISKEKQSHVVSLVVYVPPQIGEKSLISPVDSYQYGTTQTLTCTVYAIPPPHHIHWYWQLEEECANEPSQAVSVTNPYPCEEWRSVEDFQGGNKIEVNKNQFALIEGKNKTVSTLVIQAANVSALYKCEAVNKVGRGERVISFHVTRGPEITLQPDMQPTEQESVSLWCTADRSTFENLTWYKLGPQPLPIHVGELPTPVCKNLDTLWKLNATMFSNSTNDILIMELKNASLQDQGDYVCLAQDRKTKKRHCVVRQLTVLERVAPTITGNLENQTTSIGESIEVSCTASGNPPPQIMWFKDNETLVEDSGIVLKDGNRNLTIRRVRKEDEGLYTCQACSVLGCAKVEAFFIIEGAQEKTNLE
With recombinant human VEGF-A165 (ligand), the Kd stood at 6.91 nM.

As to “B. bacilliformis-derived BafA passenger domain (BafABba) (domain or fragment)”, the Kd worked out at 91.3 nM. With “B. henselae-derived BafA passenger domain (BafABhe) (domain or fragment)” the figure was 2.08 nM.
